Source: paper PMC2995041

B1: 1SD*/2DD dsDNA 29 bp (dsDNA)
DNA 1: GCGCATATGGAGCGTTTCCAAAGTCTTAG
DNA 2: CTAAGACTTTGGAAACGCTCCATATGCGC
B2: 1SD* ssDNA 29 nt (ssDNA)
DNA: GCGCATATGGAGCGTTTCCAAAGTCTTAG

Legend:
Test in all cases: EMSA
BLM HRDC domain WT [1] = target: T1, BLM HRDC domain WT (Homo sapiens, UniProt P54132 1210-1294)
BLM HRDC domain WT [2] = target: T1, BLM HRDC domain WT; remark: listed apart in the source
BLM HRDC Y1237A = BLM HRDC Y1237A (Homo sapiens, UniProt P54132 1210-1294, Y1237A)
Chain of BLM HRDC Y1237A (P54132 1210-1294 Y1237A): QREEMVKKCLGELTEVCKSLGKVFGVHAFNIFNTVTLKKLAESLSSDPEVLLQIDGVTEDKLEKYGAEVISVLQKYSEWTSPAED

BLM HRDC T1243A = BLM HRDC T1243A (Homo sapiens, UniProt P54132 1210-1294, T1243A)
Chain of BLM HRDC T1243A (P54132 1210-1294 T1243A): as the sequence (P54132 1210-1294 Y1237A) above, with A28Y, T34A counted along it

T1 sequence (P54132 1210-1294): as the sequence (P54132 1210-1294 Y1237A) above, with A28Y counted along it

| Binder | binding result (BLM HRDC domain WT [1]) | Kd (BLM HRDC domain WT [2]) [µM] | binding result (BLM HRDC Y1237A) | binding result (BLM HRDC T1243A) |
| --- | --- | --- | --- | --- |
| B1 | no binding |  |  |  |
| B2 |  | ~100 | binds | binds |
